B1: caspase-3: Recombinant human Caspase-3 purchased from Alexis Biochemicals (protein)
chain: SGISLDNSYKMDYPEMGLCIIINNKNFHKSTGMTSRSGTDVDAANLRETFRNLKYEVRNKNDLTREEIVELMRDVSKEDHSKRSSFVCVLLSHGEEGIIFGTNGPVDLKKITNFFRGDRCRSLTGKPKLFIIQACRGTELDCGIETDSGVDDDMACHKIPVEADFLYAYSTAPGYYSWRNSKDGSWFIQSLCAMLKQYADKLEFMHILTRVNRKVATEFESFSFDATFHAKKQIPCIVSMLTKELYFYH
B2: Lambda phosphatase: Lambda protein phosphatase purchased from NE BioLabs (protein)
chain: MRYYEKIDGSKYRNIWVVGDLHGCYTNLMNKLDTIGFDNKKDLLISVGDLVDRGAENVECLELITFPWFRAVRGNHEQMMIDGLSERGNVNHWLLNGGGWFFNLDYDKEILAKALAHKADELPLIIELVSKDKKYVICHADYPFDEYEFGKPVDHQQVIWNRERISNSQNGIVKEIKGADTFIFGHTPAVKPLKFANQMYIDTGAVFCGNLTLIQVQGEGA

How the values were obtained:
[1] = test system: p63^Krsl, p35, and p33^QIK; experiment: Caspase-3 treatment of Ab-KQ immune complexes, in-gel kinase readout; assay type: biochemical, mouse; details: 0.2 μg Caspase-3, 37° C., 30 min
Description: Both p63^Krsl and p33^QIK in 10 μg of cytosolic lysates (S20) were immunoprecipitated by Ab-KQ (lanes 2 to 4 and 6 to 8), followed by reatment with 0.2 μg Caspase-3 (C)(lanes 3, 4, 7 and 8) in the presence of 5 μM caspase inhibitor Z-D-CH2-DCB (C+I)(lanes 4 and 8) at 37° C. for 30 min. The kinase activities of p63^Krsl, p35, and p33^QIK in 5 μg of S20 (lanes 1 and 5) and in the immune complexes were determined by the in-gel kinase assay using MBP as a substrate. Bars indicate p63^Krsl p35, and p33^QIK.
(§1) MBP (BRL/GIBCO, Grand Island, N.Y.) was used as a substrate in the assay and the in-gel kinase assay was performed as previously described (Wang et al., 1992). Briefly, 10% SDS-polyacrylamide gel (SDS-PAG) was copolymerized with 0.4 mg/ml MBP. Cellular proteins were resolved in the MBP-immobilized SDS-PAG, followed by rinsing the gel with 20% isopropanol in buffer B (100 mM Tris, pH 8, 5 mM β-mercaptoethanol). The gel was denatured in buffer B supplemented with 6 M guanidine-HCl and renatured with buffer B supplemented with 0.04% Tween 40 (Kameshita and Fujisawa, 1989). Kinase reaction was carried out by incubating the gel with kinase buffer (20 Mm Tris, pH 7.2, 10 mM MgCl2, 15 mM β-glycerolphosphate) supplemented with 50 μM γATP and 50 μCi of [γ-^32P]ATP at 22° C. for 30 min. […] Protein kinases which phosphorylated MBP in the gel were detected by autoradiography of the [γ^32P]-labeled MBP. […]

p33^QIK = experiment: Phosphatase treatment of immunoprecipitated p33^QIK, in-gel kinase readout; assay type: biochemical, mouse; details: immune complexes from quiescent or osmotic-stressed quiescent cells; 0.1 unit PP1, 30° C., 30 min
Description: NIH3T3 cultures were synchronized in quiescent state by serum starvation for 48 hr (G0), followed by treatment with 300 mM NaCl (G0/NaCl) for 2 hr. p33^QIK in 10 μg of cytosolic lysates (S20) were immunoprecipitated by Ab-KQ (IP), followed by incubation of the immune complexes with 0.1 unit of PP1 (Ps) (lanes 2, 3, 5 and 6) in phosphatase buffer (50 mM Tris-HCl, pH 7.0, 0.1 mM EDTA, 5 mM dithiothreitol, 0.01% Brij 35, 2 mM MnCl2) in the presence of 10 mM Na3VO4 and 50 mM NaF (Ps+I)(lanes 3 and 6) at 30° C. for 30 min. The kinase activity of p33^QIK in the immune complexes was determined by the in-gel kinase assay using MBP as a substrate. Bar indicates p33^QIK.
as §1, with “1989).” for “1989). Kinase reaction was carried out by incubating the gel with kinase buffer (20 Mm Tris, pH 7.2, 10 mM MgCl2, 15 mM β-glycerolphosphate) supplemented with 50 μM γATP and 50 μCi of [γ-^32P]ATP at 22° C. for 30 min.”

| Molecule | kinase activities of p63^Krsl, p35 and p33^QIK in immune complexes ([1]; immune complexes from STSP-treated cells) | kinase activity of p33^QIK in immune complexes ([1]; p33^QIK isolated from osmotic-stressed quiescent or growing cultures) | kinase activity of activated p33^QIK after phosphatase treatment (p33^QIK) |
| --- | --- | --- | --- |
| B1 | both the kinase activities of p63^Krsl and p35 decreased in correlation with an increased p33^QIK activity | no change was detected in the kinase activity of p33^QIK | – |
| B2 | – | – | A similar result was obtained |

— patent publication US20030170252A1, “Antibody compositions specific for p33QIK and p63Krs1 polypeptides and uses thereof” (priority 2000, published 2003)
